The text below walks through data of article PMC8811534.

In the data set the target is hAGO2 (human, UniProt Q9UKV8 1-859). Briefly: EMSA.
Sequence of hAGO2 (Q9UKV8 whole entry): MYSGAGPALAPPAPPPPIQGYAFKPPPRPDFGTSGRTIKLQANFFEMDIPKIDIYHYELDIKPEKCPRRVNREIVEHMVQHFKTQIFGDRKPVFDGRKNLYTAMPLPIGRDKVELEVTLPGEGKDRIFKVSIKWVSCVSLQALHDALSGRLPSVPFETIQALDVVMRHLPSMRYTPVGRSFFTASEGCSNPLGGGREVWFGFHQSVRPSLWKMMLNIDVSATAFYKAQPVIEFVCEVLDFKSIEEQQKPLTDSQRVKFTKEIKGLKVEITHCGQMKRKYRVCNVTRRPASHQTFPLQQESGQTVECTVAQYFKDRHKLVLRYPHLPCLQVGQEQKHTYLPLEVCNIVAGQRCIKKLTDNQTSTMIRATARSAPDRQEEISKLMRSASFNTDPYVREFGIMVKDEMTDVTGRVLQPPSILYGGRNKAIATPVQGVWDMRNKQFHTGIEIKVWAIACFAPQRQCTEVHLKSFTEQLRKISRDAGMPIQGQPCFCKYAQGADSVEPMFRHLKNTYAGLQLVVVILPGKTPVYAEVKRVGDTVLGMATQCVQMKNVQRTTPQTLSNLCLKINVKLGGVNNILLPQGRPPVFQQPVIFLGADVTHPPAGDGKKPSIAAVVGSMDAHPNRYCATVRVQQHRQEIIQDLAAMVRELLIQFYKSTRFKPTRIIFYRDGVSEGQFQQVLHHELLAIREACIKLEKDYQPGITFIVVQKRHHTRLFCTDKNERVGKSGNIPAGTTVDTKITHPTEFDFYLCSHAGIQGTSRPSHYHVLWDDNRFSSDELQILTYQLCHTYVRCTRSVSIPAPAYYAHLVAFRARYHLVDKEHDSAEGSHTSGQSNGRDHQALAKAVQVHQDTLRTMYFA

B1: 5'Cy5-HIS-SARS2-1 DNA duplex (dsDNA)
DNA 1: AGCCTTTACCTCCATTAGCATAGACA
DNA 2: TGTCTATGCTAATGGAGGTAAAGGCT
Take B1: the binding result is on record as “binds”.
